Square brackets hold non-standard residues; d marks the D form. Ends that are not written are not given here. Nle = CCCC[C@H](N)C(=O)O; Dab = NCC[C@H](N)C(=O)O
Each binder was assayed against STAT3 (human, UniProt P40763 2-770, limits assumed) (assay: cell-based or functional assay).
Chain of STAT3 (P40763 2-770 limits assumed): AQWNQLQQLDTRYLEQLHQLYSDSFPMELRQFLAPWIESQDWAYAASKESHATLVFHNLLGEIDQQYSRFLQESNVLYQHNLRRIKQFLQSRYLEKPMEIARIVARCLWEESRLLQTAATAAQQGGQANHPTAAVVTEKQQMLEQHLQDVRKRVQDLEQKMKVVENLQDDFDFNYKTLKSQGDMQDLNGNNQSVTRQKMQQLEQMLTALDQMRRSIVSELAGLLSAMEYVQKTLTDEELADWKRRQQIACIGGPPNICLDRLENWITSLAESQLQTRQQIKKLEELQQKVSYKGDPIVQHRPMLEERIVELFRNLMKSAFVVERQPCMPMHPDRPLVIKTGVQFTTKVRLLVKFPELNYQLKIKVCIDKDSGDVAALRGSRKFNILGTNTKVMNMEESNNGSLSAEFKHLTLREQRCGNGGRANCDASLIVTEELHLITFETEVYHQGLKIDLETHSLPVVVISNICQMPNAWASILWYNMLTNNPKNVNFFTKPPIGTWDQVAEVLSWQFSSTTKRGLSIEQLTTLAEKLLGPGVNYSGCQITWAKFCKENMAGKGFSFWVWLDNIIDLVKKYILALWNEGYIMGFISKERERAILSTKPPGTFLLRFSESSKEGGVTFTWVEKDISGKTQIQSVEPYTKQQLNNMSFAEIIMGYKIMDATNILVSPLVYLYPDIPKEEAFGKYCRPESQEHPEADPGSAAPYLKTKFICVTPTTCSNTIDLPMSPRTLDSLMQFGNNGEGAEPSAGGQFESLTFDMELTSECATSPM

Binder | Activity, % of control (luciferase reporter, GAS or STAT3 element, MCF-7 cells)
LDTRYLEQLH[Dab]LYRQIKIWFPNRR[Nle]KWKK-NH2 (N-terminus assumed; SMILES CCCC[C@H](NC(=O)[C@H](CCCNC(=N)N)NC(=O)[C@H](CCCNC(=N)N)NC(=O)[C@H](CC(N)=O)NC(=O)[C@@H]1CCCN1C(=O)[C@H](Cc1ccccc1)NC(=O)[C@H](Cc1c[nH]c2ccccc12)NC(=O)[C@@H](NC(=O)[C@H](CCCCN)NC(=O)[C@@H](NC(=O)[C@H](CCC(N)=O)NC(=O)[C@H](CCCNC(=N)N)NC(=O)[C@H](Cc1ccc(O)cc1)NC(=O)[C@H](CC(C)C)NC(=O)[C@H](CCN)NC(=O)[C@H](Cc1c[nH]cn1)NC(=O)[C@H](CC(C)C)NC(=O)[C@H](CCC(N)=O)NC(=O)[C@H](CCC(=O)O)NC(=O)[C@H](CC(C)C)NC(=O)[C@H](Cc1ccc(O)cc1)NC(=O)[C@H](CCCNC(=N)N)NC(=O)[C@@H](NC(=O)[C@H](CC(=O)O)NC(=O)[C@@H](N)CC(C)C)[C@@H](C)O)[C@@H](C)CC)[C@@H](C)CC)C(=O)N[C@@H](CCCCN)C(=O)N[C@@H](Cc1c[nH]c2ccccc12)C(=O)N[C@@H](CCCCN)C(=O)N[C@@H](CCCCN)C(N)=O) [Hel2H-Pen] | 43 % of control
LDTRYLEQLHQLYSRQIKIWFPNRR[Nle]KWKK-NH2 (N-terminus assumed; SMILES CCCC[C@H](NC(=O)[C@H](CCCNC(=N)N)NC(=O)[C@H](CCCNC(=N)N)NC(=O)[C@H](CC(N)=O)NC(=O)[C@@H]1CCCN1C(=O)[C@H](Cc1ccccc1)NC(=O)[C@H](Cc1c[nH]c2ccccc12)NC(=O)[C@@H](NC(=O)[C@H](CCCCN)NC(=O)[C@@H](NC(=O)[C@H](CCC(N)=O)NC(=O)[C@H](CCCNC(=N)N)NC(=O)[C@H](CO)NC(=O)[C@H](Cc1ccc(O)cc1)NC(=O)[C@H](CC(C)C)NC(=O)[C@H](CCC(N)=O)NC(=O)[C@H](Cc1c[nH]cn1)NC(=O)[C@H](CC(C)C)NC(=O)[C@H](CCC(N)=O)NC(=O)[C@H](CCC(=O)O)NC(=O)[C@H](CC(C)C)NC(=O)[C@H](Cc1ccc(O)cc1)NC(=O)[C@H](CCCNC(=N)N)NC(=O)[C@@H](NC(=O)[C@H](CC(=O)O)NC(=O)[C@@H](N)CC(C)C)[C@@H](C)O)[C@@H](C)CC)[C@@H](C)CC)C(=O)N[C@@H](CCCCN)C(=O)N[C@@H](Cc1c[nH]c2ccccc12)C(=O)N[C@@H](CCCCN)C(=O)N[C@@H](CCCCN)C(N)=O) [Hel2-Pen] | 56 % of control
LDTRYLEQLHKLYSRQIKIWFPNRR[Nle]KWKK-NH2 (N-terminus assumed; SMILES CCCC[C@H](NC(=O)[C@H](CCCNC(=N)N)NC(=O)[C@H](CCCNC(=N)N)NC(=O)[C@H](CC(N)=O)NC(=O)[C@@H]1CCCN1C(=O)[C@H](Cc1ccccc1)NC(=O)[C@H](Cc1c[nH]c2ccccc12)NC(=O)[C@@H](NC(=O)[C@H](CCCCN)NC(=O)[C@@H](NC(=O)[C@H](CCC(N)=O)NC(=O)[C@H](CCCNC(=N)N)NC(=O)[C@H](CO)NC(=O)[C@H](Cc1ccc(O)cc1)NC(=O)[C@H](CC(C)C)NC(=O)[C@H](CCCCN)NC(=O)[C@H](Cc1c[nH]cn1)NC(=O)[C@H](CC(C)C)NC(=O)[C@H](CCC(N)=O)NC(=O)[C@H](CCC(=O)O)NC(=O)[C@H](CC(C)C)NC(=O)[C@H](Cc1ccc(O)cc1)NC(=O)[C@H](CCCNC(=N)N)NC(=O)[C@@H](NC(=O)[C@H](CC(=O)O)NC(=O)[C@@H](N)CC(C)C)[C@@H](C)O)[C@@H](C)CC)[C@@H](C)CC)C(=O)N[C@@H](CCCCN)C(=O)N[C@@H](Cc1c[nH]c2ccccc12)C(=O)N[C@@H](CCCCN)C(=O)N[C@@H](CCCCN)C(N)=O) [Hel2B-Pen] | 100 % of control
Ac-DTRYLEQLHALYRQIKIWFPNRR[Nle]KWKK-NH2 (SMILES CCCC[C@H](NC(=O)[C@H](CCCNC(=N)N)NC(=O)[C@H](CCCNC(=N)N)NC(=O)[C@H](CC(N)=O)NC(=O)[C@@H]1CCCN1C(=O)[C@H](Cc1ccccc1)NC(=O)[C@H](Cc1c[nH]c2ccccc12)NC(=O)[C@@H](NC(=O)[C@H](CCCCN)NC(=O)[C@@H](NC(=O)[C@H](CCC(N)=O)NC(=O)[C@H](CCCNC(=N)N)NC(=O)[C@H](Cc1ccc(O)cc1)NC(=O)[C@H](CC(C)C)NC(=O)[C@H](C)NC(=O)[C@H](Cc1c[nH]cn1)NC(=O)[C@H](CC(C)C)NC(=O)[C@H](CCC(N)=O)NC(=O)[C@H](CCC(=O)O)NC(=O)[C@H](CC(C)C)NC(=O)[C@H](Cc1ccc(O)cc1)NC(=O)[C@H](CCCNC(=N)N)NC(=O)[C@@H](NC(=O)[C@H](CC(=O)O)NC(C)=O)[C@@H](C)O)[C@@H](C)CC)[C@@H](C)CC)C(=O)N[C@@H](CCCCN)C(=O)N[C@@H](Cc1c[nH]c2ccccc12)C(=O)N[C@@H](CCCCN)C(=O)N[C@@H](CCCCN)C(N)=O) [Hel2A-3-Pen] | 89 % of control
DTRYLEQLH[Dab]LYRQIKIWFPNRR[Nle]KWKK-NH2 (N-terminus assumed; SMILES CCCC[C@H](NC(=O)[C@H](CCCNC(=N)N)NC(=O)[C@H](CCCNC(=N)N)NC(=O)[C@H](CC(N)=O)NC(=O)[C@@H]1CCCN1C(=O)[C@H](Cc1ccccc1)NC(=O)[C@H](Cc1c[nH]c2ccccc12)NC(=O)[C@@H](NC(=O)[C@H](CCCCN)NC(=O)[C@@H](NC(=O)[C@H](CCC(N)=O)NC(=O)[C@H](CCCNC(=N)N)NC(=O)[C@H](Cc1ccc(O)cc1)NC(=O)[C@H](CC(C)C)NC(=O)[C@H](CCN)NC(=O)[C@H](Cc1c[nH]cn1)NC(=O)[C@H](CC(C)C)NC(=O)[C@H](CCC(N)=O)NC(=O)[C@H](CCC(=O)O)NC(=O)[C@H](CC(C)C)NC(=O)[C@H](Cc1ccc(O)cc1)NC(=O)[C@H](CCCNC(=N)N)NC(=O)[C@@H](NC(=O)[C@@H](N)CC(=O)O)[C@@H](C)O)[C@@H](C)CC)[C@@H](C)CC)C(=O)N[C@@H](CCCCN)C(=O)N[C@@H](Cc1c[nH]c2ccccc12)C(=O)N[C@@H](CCCCN)C(=O)N[C@@H](CCCCN)C(N)=O) [Hel2I-Pen] | 53 % of control
LDTRYLEQLHKLYRQIKIWFPNRR[Nle]KWKK-NH2 (N-terminus assumed; SMILES CCCC[C@H](NC(=O)[C@H](CCCNC(=N)N)NC(=O)[C@H](CCCNC(=N)N)NC(=O)[C@H](CC(N)=O)NC(=O)[C@@H]1CCCN1C(=O)[C@H](Cc1ccccc1)NC(=O)[C@H](Cc1c[nH]c2ccccc12)NC(=O)[C@@H](NC(=O)[C@H](CCCCN)NC(=O)[C@@H](NC(=O)[C@H](CCC(N)=O)NC(=O)[C@H](CCCNC(=N)N)NC(=O)[C@H](Cc1ccc(O)cc1)NC(=O)[C@H](CC(C)C)NC(=O)[C@H](CCCCN)NC(=O)[C@H](Cc1c[nH]cn1)NC(=O)[C@H](CC(C)C)NC(=O)[C@H](CCC(N)=O)NC(=O)[C@H](CCC(=O)O)NC(=O)[C@H](CC(C)C)NC(=O)[C@H](Cc1ccc(O)cc1)NC(=O)[C@H](CCCNC(=N)N)NC(=O)[C@@H](NC(=O)[C@H](CC(=O)O)NC(=O)[C@@H](N)CC(C)C)[C@@H](C)O)[C@@H](C)CC)[C@@H](C)CC)C(=O)N[C@@H](CCCCN)C(=O)N[C@@H](Cc1c[nH]c2ccccc12)C(=O)N[C@@H](CCCCN)C(=O)N[C@@H](CCCCN)C(N)=O) [Hel2A-2-Pen] | 71 % of control
DTRYLEQLHKLYSRQIKIWFPNRR[Nle]KWKK-NH2 (N-terminus assumed; SMILES CCCC[C@H](NC(=O)[C@H](CCCNC(=N)N)NC(=O)[C@H](CCCNC(=N)N)NC(=O)[C@H](CC(N)=O)NC(=O)[C@@H]1CCCN1C(=O)[C@H](Cc1ccccc1)NC(=O)[C@H](Cc1c[nH]c2ccccc12)NC(=O)[C@@H](NC(=O)[C@H](CCCCN)NC(=O)[C@@H](NC(=O)[C@H](CCC(N)=O)NC(=O)[C@H](CCCNC(=N)N)NC(=O)[C@H](CO)NC(=O)[C@H](Cc1ccc(O)cc1)NC(=O)[C@H](CC(C)C)NC(=O)[C@H](CCCCN)NC(=O)[C@H](Cc1c[nH]cn1)NC(=O)[C@H](CC(C)C)NC(=O)[C@H](CCC(N)=O)NC(=O)[C@H](CCC(=O)O)NC(=O)[C@H](CC(C)C)NC(=O)[C@H](Cc1ccc(O)cc1)NC(=O)[C@H](CCCNC(=N)N)NC(=O)[C@@H](NC(=O)[C@@H](N)CC(=O)O)[C@@H](C)O)[C@@H](C)CC)[C@@H](C)CC)C(=O)N[C@@H](CCCCN)C(=O)N[C@@H](Cc1c[nH]c2ccccc12)C(=O)N[C@@H](CCCCN)C(=O)N[C@@H](CCCCN)C(N)=O) [Hel2A-Pen] | 100 % of control

Source: patent publication US20100184697A1 (U S OF AMERICA AS REPRESENTED BY THE SECRETAR, published 2010)
